Assay results as given in PMC6461199.

The binders below were run against TDP-43 N-RRM1-2 (UniProt Q13148 1-269) (assay: BLI).
Sequence of TDP-43 N-RRM1-2 (Q13148 1-269): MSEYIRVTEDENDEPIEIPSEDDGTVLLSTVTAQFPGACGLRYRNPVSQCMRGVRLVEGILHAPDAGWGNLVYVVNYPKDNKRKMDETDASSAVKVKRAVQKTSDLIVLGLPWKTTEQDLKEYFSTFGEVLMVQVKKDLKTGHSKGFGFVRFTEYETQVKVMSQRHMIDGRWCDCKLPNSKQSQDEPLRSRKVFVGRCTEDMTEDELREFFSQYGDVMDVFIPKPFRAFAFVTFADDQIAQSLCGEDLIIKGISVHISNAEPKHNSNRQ
CUCACAUUAUCA (ssRNA) [NegRNA12S2] showed a Kd of 1340 nM.
With GUGUGAAUGAAU (ssRNA) [RNA12] the Kd was 6.3 nM.
AUUCAUUCACAC (ssRNA) [NegRNA12] showed a Kd of 1900 nM.
In the case of GUGUGAAUGAAUGUGUGAAUGAAUGUGUGAAUGAAU (ssRNA) [RNA36], the Kd is reported as 22 nM.
Work on UAGAGUAUGAUG (ssRNA) [RNA12S1] yielded a Kd of 60 nM.
UUAUACCUACCA (ssRNA) [NegRNA12S1] was tested, and the Kd was 1650 nM.
AAGUGUGGUAUA (ssRNA) [RNA12S2] showed a Kd of 75 nM.
